“And” between values parts separate entries of the source, which are not always exact repeats. Equal values may be shown once.
What was measured:
[1] = target: ElpB_(182–378) (B. burgdorferi) (UniProt H7C7R2); assay: SPR; Elp truncation amine-coupled to a CMD200 chip; multicycle twofold injection series of C1s enzyme or activated C1s–CCP1–CCP2–SP constructs from 200 nM; HBS-T Ca2+ (10 mM Hepes pH 7.3, 140 mM NaCl, 0.005% Tween-20, 5 mM CaCl2), 30 ul/min; K_(D, kin) from a kinetic and K_(D, ss) from a steady-state 1:1 (Langmuir) fit; triplicate
[2] = target: ElpQ_(181–343) (B. burgdorferi); assay: as above
[3] = target: activated c-Myc-C1s–CCP1–CCP2–SP_(S632A) (human) (UniProt P09871); assay: AlphaScreen or HTRF; competition: 50 nM GST-ElpQ on glutathione donor beads and 500 nM activated c-Myc-C1s–CCP1–CCP2–SP_(S632A) on anti-c-Myc acceptor beads, 12-point twofold dilution of untagged competitor; HBS-T Ca2+, 1 h at room temperature; IC50 taken to approximate KD (Cheng–Prusoff)
Chain of activated c-Myc-C1s–CCP1–CCP2–SP_(S632A) (human) (P09871 16-688 S632A): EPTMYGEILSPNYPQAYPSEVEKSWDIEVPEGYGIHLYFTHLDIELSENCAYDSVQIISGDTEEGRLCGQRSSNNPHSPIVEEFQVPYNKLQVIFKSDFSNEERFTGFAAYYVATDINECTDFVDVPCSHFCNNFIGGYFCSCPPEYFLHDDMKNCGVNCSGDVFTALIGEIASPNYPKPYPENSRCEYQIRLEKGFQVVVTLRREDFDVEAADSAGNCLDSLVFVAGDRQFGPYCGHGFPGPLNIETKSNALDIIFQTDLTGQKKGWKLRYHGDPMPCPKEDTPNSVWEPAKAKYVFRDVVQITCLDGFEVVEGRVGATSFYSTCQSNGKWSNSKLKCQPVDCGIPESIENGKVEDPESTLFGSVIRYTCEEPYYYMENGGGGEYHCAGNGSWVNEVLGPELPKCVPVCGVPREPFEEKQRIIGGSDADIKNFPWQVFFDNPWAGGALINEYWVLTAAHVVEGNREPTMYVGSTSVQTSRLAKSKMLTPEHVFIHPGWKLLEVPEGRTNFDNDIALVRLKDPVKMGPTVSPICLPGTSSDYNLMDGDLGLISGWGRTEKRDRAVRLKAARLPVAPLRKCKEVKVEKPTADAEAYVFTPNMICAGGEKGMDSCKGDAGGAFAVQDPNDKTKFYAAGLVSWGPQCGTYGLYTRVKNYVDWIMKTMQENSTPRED

[4] = target: activated C1s–CCP1–CCP2–SP (human) (UniProt P09871)
Chain of activated C1s–CCP1–CCP2–SP (human) (P09871 292-688): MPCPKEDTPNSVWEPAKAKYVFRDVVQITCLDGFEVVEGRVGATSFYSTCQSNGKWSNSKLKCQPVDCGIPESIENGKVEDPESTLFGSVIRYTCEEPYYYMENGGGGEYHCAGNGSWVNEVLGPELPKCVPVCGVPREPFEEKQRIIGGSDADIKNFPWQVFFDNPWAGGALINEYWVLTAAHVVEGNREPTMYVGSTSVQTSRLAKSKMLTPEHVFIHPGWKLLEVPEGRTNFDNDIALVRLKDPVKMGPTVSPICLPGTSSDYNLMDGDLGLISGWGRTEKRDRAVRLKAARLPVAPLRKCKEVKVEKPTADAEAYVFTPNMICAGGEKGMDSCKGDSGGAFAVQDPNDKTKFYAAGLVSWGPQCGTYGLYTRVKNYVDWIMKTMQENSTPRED

[5] = target: ElpB_(111–378) (B. burgdorferi); assay: SPR; Elp truncation amine-coupled to a CMD200 chip; multicycle twofold injection series of C1s enzyme or activated C1s–CCP1–CCP2–SP constructs from 200 nM; HBS-T Ca2+ (10 mM Hepes pH 7.3, 140 mM NaCl, 0.005% Tween-20, 5 mM CaCl2), 30 ul/min; K_(D, kin) from a kinetic and K_(D, ss) from a steady-state 1:1 (Langmuir) fit; triplicate

Row | Substance | Kd [2] | Kd [3] [µM] | also measured
1 | C1s CCP1–CCP2–SP CCPE (from UniProt P09871) (domain or fragment) | 0.37 µM | – | Kd [1]: 0.57 µM
2 | ElpB_(182–378) (from UniProt H7C7R2 182-378) (domain or fragment) | – | 0.045 | –
3 | ElpQ_(19–343) (natural protein) | – | 0.19 | –
4 | ElpQ_(181–343) (domain or fragment) | – | 0.11 | IC50 of inhibition of C4 cleavage by 6.25 nM activated C1s–CCP1–CCP2–SP, SDS-PAGE densitometry, ElpQ (181–343) 25 to 0.20 uM; blocks m9 with m17 [4]: 3.6 µM
5 | activated C1s–CCP1–CCP2–SP (from UniProt P09871 292-688) (domain or fragment) | 0.21 µM | – | –
6 | complement component C4 (natural protein) | – | 0.74 | –
7 | purified full-length activated C1s enzyme | 0.017 µM and 0.031 µM | – | Kd [5]: 0.021 µM and 0.035 µM; Kd [1]: 0.047 µM and 0.085 µM

Reference: PMC9637899
